This experiment addresses F-ΔC2-WWP2 (UniProt O00308). The experiment in a line: fluorescence polarisation.

One may read the Kd as the free concentration of one partner at which half of the binding sites on the other are occupied at equilibrium, for simple one-to-one binding. Lower therefore signals higher affinity. Regarding “non-phosphorylated PTEN (n-PTEN) (natural protein)”, the Kd was determined as 20 µM.

Values taken from PMC6093203.
